From article PMC12416549 (2024)
Substitutions are numbered along the chain they refer to. Names and notes keep the numbering of the source.

T1: TNFR1 (Homo sapiens, UniProt P19438)
T1 chain: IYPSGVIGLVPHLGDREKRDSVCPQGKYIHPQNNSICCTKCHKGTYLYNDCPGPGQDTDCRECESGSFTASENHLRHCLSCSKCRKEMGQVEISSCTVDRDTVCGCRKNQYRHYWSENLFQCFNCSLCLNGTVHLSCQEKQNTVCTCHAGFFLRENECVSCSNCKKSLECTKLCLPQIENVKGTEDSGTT

B1: A91P (designed binder)
chain: MTLQELLREEALRRAEAEAFRYALELLAEKFPEQKEYLLDLAEEIESQIRSLSGVDVEDVRKFLDKEWAWVKELLAEHPAELAEVEAARAPRLAELRAEVEAKVAA
B2: Q48L (designed binder)
chain: B1 chain with Q48L, P91A
B3: E29A (designed binder)
chain: B1 chain with E29A, P91A
B4: A105Q (designed binder)
chain: B1 chain with P91A, A105Q
B5: V71E (designed binder)
chain: B1 chain with V71E, P91A
B6: A90T (designed binder)
chain: B1 chain with A90T, P91A
B7: L41W (designed binder)
chain: B1 chain with L41W, P91A
B8: E18K (designed binder)
chain: B1 chain with E18K, P91A
B9: E77H (designed binder)
chain: B1 chain with E77H, P91A
B10: R21E (designed binder)
chain: B1 chain with R21E, P91A
B11: S47M (designed binder)
chain: B1 chain with S47M, P91A
B12: E86H (designed binder)
chain: B1 chain with E86H, P91A
B13: V57H (designed binder)
chain: B1 chain with V57H, P91A
B14: W68P (designed binder)
chain: B1 chain with W68P, P91A
B15: A94W (designed binder)
chain: B1 chain with P91A, A94W
B16: D56V (designed binder)
chain: B1 chain with D56V, P91A
B17: A17G (designed binder)
chain: B1 chain with A17G, P91A
B18: E101I (designed binder)
chain: B1 chain with P91A, E101I
B19: E16M (designed binder)
chain: B1 chain with E16M, P91A
B20: A98Y (designed binder)
chain: B1 chain with P91A, A98Y
B21: R97G (designed binder)
chain: B1 chain with P91A, R97G
B22: L12N (designed binder)
chain: B1 chain with L12N, P91A
B23: L82F (designed binder)
chain: B1 chain with L82F, P91A
B24: S53K (designed binder)
chain: B1 chain with S53K, P91A
B25: L52T (designed binder)
chain: B1 chain with L52T, P91A
B26: Q34H (designed binder)
chain: B1 chain with Q34H, P91A
B27: A88W (designed binder)
chain: B1 chain with A88W, P91A
B28: A88Y (designed binder)
chain: B1 chain with A88Y, P91A
B29: E95Q (designed binder)
chain: B1 chain with P91A, E95Q
B30: A91Q (designed binder)
chain: B1 chain with P91Q
B31: F20E (designed binder)
chain: B1 chain with F20E, P91A
B32: K103H (designed binder)
chain: B1 chain with P91A, K103H
B33: Q48W (designed binder)
chain: B1 chain with Q48W, P91A
B34: E81H (designed binder)
chain: B1 chain with E81H, P91A
B35: V71G (designed binder)
chain: B1 chain with V71G, P91A
B36: V71N (designed binder)
chain: B1 chain with V71N, P91A
B37: L41N (designed binder)
chain: B1 chain with L41N, P91A
B38: V57E (designed binder)
chain: B1 chain with V57E, P91A
B39: E46P (designed binder)
chain: B1 chain with E46P, P91A
B40: A15V (designed binder)
chain: B1 chain with A15V, P91A
B41: Q48D (designed binder)
chain: B1 chain with Q48D, P91A
B42: A11H (designed binder)
chain: B1 chain with A11H, P91A
B43: L39E (designed binder)
chain: B1 chain with L39E, P91A
B44: K35T (designed binder)
chain: B1 chain with K35T, P91A
B45: I45T (designed binder)
chain: B1 chain with I45T, P91A
B46: L41H (designed binder)
chain: B1 chain with L41H, P91A
B47: W70E (designed binder)
chain: B1 chain with W70E, P91A
B48: E33D (designed binder)
chain: B1 chain with E33D, P91A
B49: W68C (designed binder)
chain: B1 chain with W68C, P91A
B50: E77Y (designed binder)
chain: B1 chain with E77Y, P91A
B51: V55Q (designed binder)
chain: B1 chain with V55Q, P91A
B52: L24R (designed binder)
chain: B1 chain with L24R, P91A
B53: E99F (designed binder)
chain: B1 chain with P91A, E99F
B54: L26W (designed binder)
chain: B1 chain with L26W, P91A
B55: R92E (designed binder)
chain: B1 chain with P91A, R92E
B56: W70L (designed binder)
chain: B1 chain with W70L, P91A
B57: K66Y (designed binder)
chain: B1 chain with K66Y, P91A
B58: L93N (designed binder)
chain: B1 chain with P91A, L93N
B59: E86F (designed binder)
chain: B1 chain with E86F, P91A

Molecular target: T1, TNFR1
Test: yeast display SC50

apparent Kd (screen)	Binder
490 pM	B1
2730 pM	B2
718 pM	B3
539 pM	B4
869 pM	B5
790 pM	B6
2250 pM	B7
490 pM	B8
653 pM	B9
490 pM	B10
490 pM	B11
790 pM	B12
593 pM	B13
7780 pM	B14
539 pM	B15
2730 pM	B16
539 pM	B17
490 pM	B18
1050 pM	B19
539 pM	B20

apparent Kd (screen)	Binder
539 pM	B21
446 pM	B22
539 pM	B23
2730 pM	B24
593 pM	B25
869 pM	B26
490 pM	B27
1050 pM	B28
446 pM	B29
490 pM	B30
5310 pM	B31
490 pM	B32
29500 pM	B33
446 pM	B34
22200 pM	B35
869 pM	B36
2050 pM	B37
1860 pM	B38
490 pM	B39
653 pM	B40

apparent Kd (screen)	Binder
22200 pM	B41
718 pM	B42
2480 pM	B43
539 pM	B44
10400 pM	B45
13800 pM	B46
26900 pM	B47
490 pM	B48
2480 pM	B49
490 pM	B50
1050 pM	B51
7780 pM	B52
593 pM	B53
405 pM	B54
1050 pM	B55
22200 pM	B56
490 pM	B57
790 pM	B58
2250 pM	B59
